According to paper PMC3764424, “High-resolution Structural and Thermodynamic Analysis of Extreme Stabilization of Human Procarboxypeptidase by Computational Protein Design” (Journal of Molecular Biology, 2007):

Target: the molecule itself
Assay: AUC; sedimentation equilibrium, 20 °C, 25 mM Tris-HCl pH 8.0, 50 mM NaCl with and without 20 mM EDTA; 13, 33 and 50 μM protein; 25,000, 35,000 and 45,000 rpm; monomer-dimer model, dimer to monomers

B1: AYEdes (N-terminal His6 tag followed only by the 70 designed residues of AYEdesign) (other)
chain: KTIFVIVPTNEEQVAFLEALAKQDELNFDWQNPPTEPGQPVVILIPSDMVEWFLEMLKAKGIPFTVYVEE
  Kd: ~150 µM
